One molecule from article PMC6002344 can be followed below.

For this assay, the target named is PDZ1 NHERF1 Y38W. The experiment in a line: FRET or BRET; equilibrium fluorescence titration, FRET between Trp38 (donor) and dansyl (acceptor), excitation 280 nm; 50 mM Na phosphate, pH 7.2, 300 mM NaCl, 5 mM DTT, 20% DMSO, 25 °C; without RS5517. (In general: Bioluminescence resonance energy transfer reports proximity on the nanometre scale.)

Ends that are not written are not given here. * marks the point of attachment. Dansyl = CN(C)c1cccc2c(S(=O)(=O)*)cccc12

B1: Dansyl-NDSLL, dansylated peptide of the C-terminal sequence of the β2-adrenergic receptor (peptide)
peptide: Dansyl-NDSLL
For the molecule B1, the Kd (as a rule, the free concentration of one partner at which half of the binding sites on the other are occupied at equilibrium, for simple one-to-one binding) came out at 10 µM. This lies in the double-digit micromolar range.
